# Residue numbers refer to the chain shown, from its start.
# B1: HumA humanized 1A6 scFv (scFv, not shown: large carriers)
# scFv: DIQMTQSPSSLSASVGDRVTITCRASQSISNNLHWYQQKPGKAPKLLIYHASQSISGVPSRFSGSGSGTDFTLTISSLQPEDFATYYCQQSNSWPYTFGQGTKVEIKRGGGGSGGGGSGGGGSGGGGSEVQLVESGGGLVQPGGSLRLSCAASGFNIKDTYIHWVRQAPGKGLEWVARIDPANDNTIYADSVKGRFTISSDDSKNTAYLQMNSLRAEDTAVYYCTDSGYWFAYWGQGTLVTVSS
# B2: HumC humanized 1A6 scFv (scFv, not shown: large carriers)
# scFv: B1 scFv with S200G, D226T
# B3: HumB humanized 1A6 scFv (scFv, not shown: large carriers)
# scFv: B1 scFv with D226A
# Target: ICAM-1 on HeLa cells (UniProt P05362 28-532, limits assumed)
# Experiment: cell-based or functional assay
# Chain of ICAM-1 on HeLa cells (P05362 28-532 limits assumed): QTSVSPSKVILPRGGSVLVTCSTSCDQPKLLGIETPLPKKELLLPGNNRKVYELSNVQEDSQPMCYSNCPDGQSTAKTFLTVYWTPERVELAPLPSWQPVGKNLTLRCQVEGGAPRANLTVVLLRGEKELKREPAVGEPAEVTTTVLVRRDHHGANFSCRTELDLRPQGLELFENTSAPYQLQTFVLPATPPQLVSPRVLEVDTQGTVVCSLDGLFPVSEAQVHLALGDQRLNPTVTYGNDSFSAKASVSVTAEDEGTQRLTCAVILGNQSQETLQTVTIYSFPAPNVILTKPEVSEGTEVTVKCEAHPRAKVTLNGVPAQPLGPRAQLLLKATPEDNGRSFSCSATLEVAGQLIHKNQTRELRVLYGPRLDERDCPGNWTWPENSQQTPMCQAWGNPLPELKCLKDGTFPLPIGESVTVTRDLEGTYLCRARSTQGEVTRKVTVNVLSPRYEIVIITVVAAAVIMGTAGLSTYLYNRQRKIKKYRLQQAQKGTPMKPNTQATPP
row,Binder,EC 50 (µM): 50% protection of HeLa cells against HRV15 infection at 1 MOI [µM]
1,B1,2.8
2,B2,0.22
3,B3,0.19

# From patent US20070071742A1 (PERLAN THERAPEUTICS, published 2007)
